Laboratory results taken from patent US6596504B2, “Treatment of prophylaxis of diseases caused by pilus-forming bacteria” (Washington University, priority 1993, dated 2003).
Entries after “also recorded” stand apart in the source; their conditions may differ.

Columns and labels:
PapD [1] = target: T1, PapD (Escherichia coli, UniProt P15319); experiment: ELISA: PapD binding to peptides coated on microtiter wells; set-up: species or system E. coli; settings: for reduction of binding of PapD to the immobilized peptide: compared with G1′-19′WT peptide; for binding of PapD to immobilized peptide: peptide coated on microtiter wells, ELISA with anti-PapD antiserum
T1 construct: (A) NAME/KEY: mat_; made in house; Lindberg et al. 1989
T1 sequence (P15319 22-239): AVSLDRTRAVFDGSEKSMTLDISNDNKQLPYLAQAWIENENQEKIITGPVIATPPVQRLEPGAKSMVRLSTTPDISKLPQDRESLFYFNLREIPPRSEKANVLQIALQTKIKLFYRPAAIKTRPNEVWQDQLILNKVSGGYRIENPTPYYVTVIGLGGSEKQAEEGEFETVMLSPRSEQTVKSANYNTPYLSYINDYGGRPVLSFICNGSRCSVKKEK
Protocol: FIG. 1: PapD binds to pilus subunit-related peptides coated in ELISA microtiter plates and in solution. A and B: The peptides from Table 1 were coated on microtiter wells and tested for their ability to bind to PapD in an ELISA assay described in example 2. Water insoluble peptides were dissolved in 2.5% acetic acid (AA) which had no effect on the binding of G1′-19′WT to PapD in this assay. Each group represents the average of duplicate wells.
5 mg/ml stock solutions of peptides in water or 50% acetic acid were diluted to a concentration of 2.5 pmol/50 μl in PBS. 50 μl of the peptide solution was coated overnight onto microtiter wells (Nunc-Immuno Plate Maxisorp) at 4° C. The solutions in the plates were discarded, and the wells were blocked with 200 μl 3% bovine serum albumin (BSA, Sigma) in PBS (120 mM NaCl/2.7 mM KCl/10 mM phosphate buffer salts, pH 7.4) for 2 hours at 25° C. The plates were washed vigorously 3 times with PBS and incubated with 50 μl of the indicated amount of purified PapD (Lindberg et al, 1989). After 3 washes with PBS, the wells were incubated with a 1:500 dilution of anti-PapD rabbit antiserum (Lindberg et al, 1989) in 3% BSA/PBS for 45 min. at 25° C. After 3 washes with PBS, the wells were incubated with a 1:1000 dilution of goat anti-rabbit IgG coupled to alkaline phosphatase (Sigma) in 3% BSA/PBS for 45 min. at 25° C. Following 3 washes with PBS and 3 washes with developing buffer (10 mM diethanolamine pH 9.5, 0,5 MM MgCl2), 50 μl filtered p-nitrophenyl phosphate substrate (Sigma) in developing buffer (10 mg/ml) was added. The absorbance at 405 nm was read after 60 min of incubation in the dark at 25° C.

PapD-PapG complex = target: T2, PapD-PapG complex (Escherichia coli, UniProt P15319); experiment: Reconstitution assay: restoration of PapD-PapG complex from reduced, denatured PapD-PapG; type: binding, E. coli; settings: PapD preincubated with peptide
T2 construct: (A) NAME/KEY: mat_; made in house
T2 sequence (P15319 22-239): T1 sequence (P15319 22-239)
Protocol: B: PapD incubated with the G1′-19′WT, G1′-16′WT, K1′-19′WT, and G2′-21′amide was added to reduced, denatured PapD-PapG and the amount of PapD-PapG complex restored in each sample was quantitated as described in example 2. The % inhibition represents the amount of the PapD-PapG complex restored with peptide-treated PapD compared to the amount of PapD-PapG complex restored with untreated PapD. The graph represent the average of 4 experiments. PapD and PapD-PapG complex were prepared as described in F. Lindberg et al, J. Bacteriol. 171, 6052 (1989) and S. J. Hultgren et al., Proc. Natl. Acad. Sci. USA 86, 4357 (1989).
FIG. 7: Ability of PapD Arg-8, Lys-112 and Thr-7 mutants to bind PapG and restore the PapD-PapG complex in vitro. 0.4 μg of PapD-PapG complex was reduced and denatured as described in FIG. 2B. The denatured PapD-PapG complex was then diluted with 0-630 ng purified wild type (WT) or mutant PapD. The amount of PapD-PapG restored in the samples was determined as in FIG. 2B and was graphed as a percentage of the greatest amount of PapD-PapG restored. The values graphed represent the average of 3 experiments. Wild type and mutant PapD and the PapD-PapG complex were purified as described in F. Lindberg et al, J. Bacteriol. 171, 6052 (1989) and S. J. Hultgren et al., Proc. Natl. Acad. Sci. USA 86, 4357 (1989).
The PapD-peptide solution was then added to the reduced, denatured PapD-PapG, incubated at 25° C. for 10 min, and applied to an IEF 3-9 gel (Pharmacia). The amount of PapD-PapG restored in each sample was quantitated by densitometry of the silver stained IEF band corresponding to the pI of the DG complex.

PapD [2] = target: T1, PapD; experiment: Protection of PapD against trypsin cleavage by peptides; type: biochemical, E. coli; settings: preincubation with 20-fold molar excess of peptide
Protocol: A Lower: The rate of trypsin cleavage of PapD decreased upon preincubation with the G1′-19′WT, G1′-16′WT or K1′-19′WT peptides, but the G2′-21′amide peptide had no effect. 50 μg of purified PapD was preincubated for 15 min at 25° C. with a 20-fold molar excess of G1′-19′WT, G1′-16′WT, K1′-19′WT or G2′-21′amide peptides (any trypsin cleavage sites in these peptides occur at their amino termini where they were predicted not to interfere with PapD), or an equivalent volume of water. Each sample was then incubated at 37° C. with 3.2 μg of trypsin. Aliquots were removed after 0, 5, 10, 20, 30 and 40 min and boiled in SDS-PAGE sample buffer to stop the digestion. The samples were applied to 15% SDS-PAGE gels and the amount of full-length PapD remaining was determined by densitometry of Coomassie blue stained bands corresponding to full-length PapD which are shown.
400 μg of PapD was partially digested by incubation with either 4,5μg trypsin or 0.45 μg chymotrypsin on PBS for 20 min. at 37° C. The PapD digests were applied to a C-18 HPLC column (Beckman) and 2 major fragments were eluted with a 0-100% acetonitrile gradient in 0.01% trifluoroacetic acid. The PapD fragments were identified by their molecular weight on SDS-PAGE and amino-terminal sequencing. The N-terminal amino acid sequences of the approximately 14 kDa tryptic and chymotryptic fragments were identified as residues 100-108 and 104-109 of PapD, respectively, corresponding to cleavage after Lys-99 (for trypsin) and Leu-103 (for chymotrypsin). The N-terminal sequences of the 11 and 12 kDa bands in the digests were identical to the N-terminal sequence of PapD.

PapD [3] = target: T1, PapD; experiment: ELISA: inhibition by peptides of PapD binding to MBP-G1′-140′ fusion protein; set-up: species or system E. coli; settings: PapD preincubated with peptide at 1:25 ratio; preliminary results
Protocol: Stock solutions of MBP-G1′-140′ proteins in PBS were diluted to 0.1 μM with PBS. The wells of microtiter plates were coated with 50 μl of the protein solutions overnight at 4° C. The wells were washed with PBS, and blocked with 200 μl of 3bovine serum albumin (BSA) in PBS for 2 hours at 25° C. The plates were washed vigorously three times with PBS and incubated with 50 μl of 1-5 μM PapD proteins in […]-PBS for 45 minutes at 25° C. The PapD was preincubated with each of the peptides at a 1:25 ratio for 30 min before being added to the wells. After three washings with PBS, the wells were incubated with a 1:500 dilution of rabbit anti-PapD antiserum in BSA-PBS for 45 minutes at 25° C. After three washings with PBS, the wells were incubated with a 1:1000 dilution of goat antiserum to rabbit IgG coupled to alkaline phosphatase in 3BSA-PBS for 45 minutes at 25° C. After three washings with PBS and three washings with developing buffer (10 mM diethanolamine, 0.5 mM MgCl2), 50 μl filtered 1 mg/ml p-nitrophenyl phosphate in developing buffer was added, the reaction was incubated for 1 hour or longer if necessary in the dark at 25° C., and the absorbance at 405 nm was read.

[4] = Water solubility of peptides; type: physicochemical
PapD [5] = target: T1, PapD; experiment: Soluble inhibition ELISA: PapD binding to G1′-19′WT-coated wells; set-up: species or system E. coli; settings: 25-fold molar excess of peptide, 100 pmol/well PapD, compared to water
Protocol: Microtiter wells were coated overnight at 4° C. with 50 μl of 2,5 pmol/50 μl of the G1′-19′WT peptide. The wells were washed with PBS and blocked with 3% bovine serum albumin (BSA). A 25-fold molar excess of each test peptide was pre-incubated with 100 pmoles PapD for 30 min. and the PapD-peptide solution was then added to the coated wells and incubated at 25° C. for 45 min in the presence of 3% BSA/PBS. The subsequent primary antibody, secondary antibody and developing steps are described above. The ability of the peptides to inhibit binding of PapD to the G1′-19′WT peptide was calculated by dividing the amount of PapD binding in the presence of peptide with the amount of PapD binding in the presence of water. 0% inhibition includes values where binding was greater than that of PapD pre-incubated with H2O.

Substance | binding of PapD to immobilized peptide (PapD [1]) | inhibitory power on binding of PapD to MBP-G1′-140′ (PapD [3]) | also measured
NH2-GKRKPVELSGSMTMVLSSP-COOH (H-GKRKPVELSGSMTMVLSSP-OH) [G1′-19′SV] | – | – | reduction of binding of PapD to the immobilized peptide (PapD [1]): 36%
NH2-GKRKPGELSGSMTMVLSFP-CONH2 (H-GKRKPGELSGSMTMVLSFP-NH2) [G1′-19′ amide] | did not affect binding to PapD | – | –
NH2-KKLEAGNYFAVLGFRVDYE-COOH (H-KKLEAGNYFAVLGFRVDYE-OH) [H1′-19′ WT] | no binding | – | –
NH2-KSVVPGDYEATATFELTYR-COOH (H-KSVVPGDYEATATFELTYR-OH) [K1′-19′WT] | tight binding | – | inhibition of restoration of the PapD-PapG complex by PapD (PapD-PapG complex): inhibit restoration of the PapD-PapG complex; binding of PapD to immobilized peptide (PapD [1]; listed as PapK): moderately; rate of trypsin cleavage of PapD (PapD [2]): decreased; also recorded: reduced the rate of tryptic cleavage of PapD
H-QNLIAGPFSATATLVASYS-OH [E1′-19′WT, NH2-QNLIAGPFSATATLVASYS-COOH] | moderately | – | –
NH2-GILNGGDFQTTASMAMIYN-COOH (H-GILNGGDFQTTASMAMIYN-OH) [F1′-19′WT] | moderately | – | –
H-TMVLSFP-OH [G1′-7′WT, NH2-TMVLSFP-COOH] | does not bind | less active inhibitory peptides | solubility [4]: limited solubility
H-SGSMTMVLSFP-OH [G1′-11′WT, NH2-SGSMTMVLSFP-COOH] | binds | significantly more potent | –
G1′-6′: length series of peptides from the C-terminus of PapG, 6 residues (MVLSFP) | – | less active inhibitory peptides | –
G1′-4′: 4 C-terminal amino acid residues of PapG (numbering of b394) (LSFP) | – | – | % Inhibition (PapD [5]): 0%
NH2-GKRKPGELSGSMTMVLSFP-COOH (H-GKRKPGELSGSMTMVLSFP-OH) [G1′-19′WT] | bound well | – | inhibition of restoration of the PapD-PapG complex by PapD (PapD-PapG complex): inhibit restoration of the PapD-PapG complex; rate of trypsin cleavage of PapD (PapD [2]): decreased; also recorded: reduced the rate of tryptic cleavage of PapD
NH2-EEGKRKPGELSGSMTMVLSF-CONH2 (H-EEGKRKPGELSGSMTMVLSF-NH2) [G2′-21′amide] | reduced binding of PapD | – | inhibition of restoration of the PapD-PapG complex by PapD (PapD-PapG complex): has no effect; % Inhibition (PapD [5]): 0%; reduction of binding of PapD to the immobilized peptide (PapD [1]): approximately 75%; rate of trypsin cleavage of PapD (PapD [2]): had no effect and not
G1′-8′: octameric peptide from the C-terminus of PapG (MTMVLSFP) | – | significantly higher inhibitive effect; also recorded: significantly more potent | –
NH2-KPGELSGSMTMVLSFP-COOH (H-KPGELSGSMTMVLSFP-OH) [G1′-16′WT] | binds | significantly more potent | inhibition of restoration of the PapD-PapG complex by PapD (PapD-PapG complex): inhibit restoration of the PapD-PapG complex; rate of trypsin cleavage of PapD (PapD [2]): decreased; also recorded: reduced the rate of tryptic cleavage of PapD
NH2-YALAPNAVIPTSLALL-COOH (H-YALAPNAVIPTSLALL-OH) [MS, random hydrophobic peptide, reference compound] | no binding | – | % Inhibition (PapD [5]): 1%
